Results as given in article PMC7948472, “Structural basis for antigen recognition by methylated lysine–specific antibodies” (The Journal of Biological Chemistry, 2020).
One block for each binder: values may come before it.

Target: T1, MAP3K2 peptide, NPIFEKFGKGGTYP (Homo sapiens)
T1 construct: MAP3K2 peptide surrounding Lys260, not methylated; also called non-methylated peptide; nonmethylated peptide; source: synthetic peptide (SCRUM Inc)
T1 chain: NPIFEKFGKGGTYP
Assay: SPR; Biacore T200; each Fab immobilised on a CM5 chip by amine coupling; peptides injected at increasing concentrations; running buffer PBS with 0.005% Tween 20; global fitting of the curves, or steady-state analysis where kinetic parameters could not be determined (fast dissociation, low affinity)
Conditions: both partners purified

- Kd: 4000 nM
- koff: 0.33 ± 0.04 s⁻¹
- kon: 86000 M⁻¹ s⁻¹
B1: Fab F9 (Fab, V domains shown)
VH: QSVEESGGRLVTPGTPLTLTCTVSGFSLNSNAISWVRQAPGEGLEWVGAIYTHGSTVYANWAKGRFTISKTSTTIELKMTSLTTEDTATYFCARHGYTYSFNLWGPGTLVTVSS
VL: AQGLTQTPSPVSAALGGTVTINCQSSQSVYGNNRLAWYQQKPGQPPKRLIYQASTLDSGVPSRFSGSGSGTQFTLTISGVQCDDAATYYCQGGYSSGDAWAFGGGTEVVVK
notes: heavy chain of rabbit Fab clone F9; they are in PDB 6LDV chain H; light chain of rabbit Fab clone F9; they are in PDB 6LDV chain L; Purified on Ni-NTA, so a His tag is surmised; source: Expi293 cells, cotransfected, purified from supernatant (Ni-NTA, SEC)

- Kd: 350 nM
- koff: 0.18 ± 0.01 s⁻¹
- kon: 500000 M⁻¹ s⁻¹
B2: Fab E6 (Fab, V domains shown)
VH: DQSLEESGGRLVTPGTPLTLTCTVSGFSLNNNAMGWFRQAPGEGLEWIGAIYTDGSTYYASWAKGRFTISKTSTTIDLKMTSLTTEDTATYFCARHGYTYSFNLWGPGTLVTVSS
VL: DPVMTQTPPSVSAAVGGTVTISCQSSQSVYNNDNLAWYQQKPGQPPKRLIYGASTLDSGVPSRFKGSGSGTQFTLTISGVECDDAATYYCQGAYNVDIYPFGGGTEVVVK
notes: heavy chain of rabbit Fab clone E6; they are in PDB 6LDX chain H; light chain of rabbit Fab clone E6; they are in PDB 6LDX chain L; Purified on Ni-NTA, so a His tag is surmised; source: Expi293 cells, cotransfected, purified from supernatant (Ni-NTA, SEC)
